Measured values reported in the supplement of paper PMC11246515.
± gives the standard deviation of the averaged measurements.

Assay: total protein half-life in vivo (active degradation + dilution); higher = more stable protein
[1] = E. coli NCM3722 delta-clpP, growth: N-lim chemostat, doubling time 6 h
[2] = E. coli NCM3722 delta-hslV, growth: N-lim chemostat, doubling time 6 h
[3] = E. coli NCM3722 delta-lon, growth: N-lim chemostat, doubling time 6 h
[4] = E. coli NCM3722 delta-smpB, growth: N-lim chemostat, doubling time 6 h
[5] = wild type E. coli NCM3722, growth: C-lim chemostat, doubling time 6 h
[6] = wild type E. coli NCM3722, growth: C-lim chemostat, doubling time 12 h
[7] = wild type E. coli NCM3722, growth: N-lim chemostat, doubling time 6 h
[8] = wild type E. coli NCM3722, growth: N-lim chemostat, doubling time 12 h
[9] = wild type E. coli NCM3722, growth: P-lim chemostat, doubling time 6 h
[10] = wild type E. coli NCM3722, growth: P-lim chemostat, doubling time 12 h
[11] = E. coli NCM3722 delta-clpP delta-lon delta-hslV, growth: N-lim chemostat, doubling time 6 h
[12] = wild type E. coli NCM3722, growth: C-lim chemostat, doubling time 3 h

Sequence	total protein half-life in vivo [1]	total protein half-life in vivo [2]	total protein half-life in vivo [3]	total protein half-life in vivo [4]	total protein half-life in vivo [5]	total protein half-life in vivo [6]	total protein half-life in vivo [7]	total protein half-life in vivo [8]	total protein half-life in vivo [9]	total protein half-life in vivo [10]	total protein half-life in vivo [11]	total protein half-life in vivo [12]
MLNQLDNLTERVRGSNKLVDRWLHVRKHLLVAYYNLVGIKPGKESYMRLNEKALDDFCQSLVDYLSAGHFSIYERILHKLEGNGQLARAAKIWPQLEANTQQIMDYYDSSLETAIDHDNYLEFQQVLSDIGEALEARFVLEDKLILLVLDAARVKHPA [P0AFX4]	6.38 h	2.42 ± 0.21 h	2.8 h	2.38 ± 0.34 h	3.06 ± 0.11 h	5.14 ± 0.081 h	2.51 ± 0.29 h	3.09 ± 0.19 h	3.51 h	5.62 ± 0.091 h	–	–
MLNSILVILCLIAVSAFFSMSEISLAASRKIKLKLLADEGNINAQRVLNMQENPGMFFTVVQIGLNAVAILGGIVGDAAFSPAFHSLFSRYMSAELSEQLSFILSFSLVTGMFILFADLTPKRIGMIAPEAVALRIINPMRFCLYVCTPLVWFFNGLANIIFRIFKLPMVRKDDITSDDIYAVVEAGALAGVLRKQEHELIENVFELESRTVPSSMTPRENVIWFDLHEDEQSLKNKVAEHPHSKFLVCNEDIDHIIGYVDSKDLLNRVLANQSLALNSGVQIRNTLIVPDTLTLSEALESFKTAGEDFAVIMNEYALVVGIITLNDVMTTLMGDLVGQGLEEQIVARDENSWLIDGGTPIDDVMRVLDIDEFPQSGNYETIGGFMMFMLRKIPKRTDSVKFAGYKFEVVDIDNYRIDQLLVTRIDSKATALSPKLPDAKDKEESVA [P0AE45]	6.93 ± 1.4 h	4.5 ± 0.44 h	4.11 ± 0.21 h	4.53 ± 0.24 h	5.16 ± 0.21 h	8.79 ± 0.3 h	4.33 ± 0.52 h	7.63 ± 0.57 h	5.01 ± 0.053 h	9 ± 0.094 h	5.65 ± 0.36 h	2.97 ± 0.18 h
MLPKAARIPHAMTLHGDTRIDNYYWLRDDTRSQPEVLDYLQQENSYGHRVMASQQALQDRILKEIIDRIPQREVSAPYIKNGYRYRHIYEPGCEYAIYQRQSAFSEEWDEWETLLDANKRAAHSEFYSMGGMAITPDNTIMALAEDFLSRRQYGIRFRNLETGNWYPELLDNVEPSFVWANDSWIFYYVRKHPVTLLPYQVWRHAIGTPASQDKLIYEEKDDTYYVSLHKTTSKHYVVIHLASATTSEVRLLDAEMADAEPFVFLPRRKDHEYSLDHYQHRFYLRSNRHGKNFGLYRTRMRDEQQWEELIPPRENIMLEGFTLFTDWLVVEERQRGLTSLRQINRKTREVIGIAFDDPAYVTWIAYNPEPETARLRYGYSSMTTPDTLFELDMDTGERRVLKQTEVPGFYAANYRSEHLWIVARDGVEVPVSLVYHRKHFRKGHNPLLVYGYGSYGASIDADFSFSRLSLLDRGFVYAIVHVRGGGELGQQWYEDGKFLKKKNTFNDYLDACDALLKLGYGSPSLCYAMGGSAGGMLMGVAINQRPELFHGVIAQVPFVDVVTTMLDESIPLTTGEFEEWGNPQDPQYYEYMKSYSPYDNVTAQAYPHLLVTTGLHDSQVQYWEPAKWVAKLRELKTDDHLLLLCTDMDSGHGGKSGRFKSYEGVAMEYAFLVALAQGTLPATPAD	3.82 ± 0.14 h	4.03 ± 0.38 h	4.8 ± 0.56 h	3.5 ± 0.68 h	5.11 ± 0.12 h	10.8 ± 3.6 h	4.31 ± 0.24 h	8.85 h	5.9 ± 1.3 h	10.3 ± 0.86 h	–	3.24 ± 0.09 h
MLPSQSPAIFTVSRLNQTVRLLLEHEMGQVWISGEISNFTQPASGHWYFTLKDDTAQVRCAMFRNSNRRVTFRPQHGQQVLVRANITLYEPRGDYQIIVESMQPAGEGLLQQKYEQLKAKLQAEGLFDQQYKKPLPSPAHCVGVITSKTGAALHDILHVLKRRDPSLPVIIYPAAVQGDDAPGQIVRAIELANQRNECDVLIVGRGGGSLEDLWSFNDERVARAIFTSRIPVVSAVGHETDVTIADFVADLRAPTPSAAAEVVSRNQQELLRQVQSTRQRLEMAMDYYLANRTRRFTQIHHRLQQQHPQLRLARQQTMLERLQKRMSFALENQLKRTGQQQQRLTQRLNQQNPQPKIHRAQTRIQQLEYRLAETLRAQLSATRERFGNAVTHLEAVSPLSTLARGYSVTTATDGNVLKKVKQVKAGEMLTTRLEDGWIESEVKNIQPVKKSRKKVH	5.772 ± 0.023 h	6.48 ± 0.87 h	5.98 ± 0.4 h	5.71 ± 0.13 h	6.11 ± 0.37 h	11.39 ± 0.059 h	5.89 ± 0.5 h	12.33 ± 0.035 h	6.05 ± 0.67 h	13.1 ± 2.8 h	6.078 ± 0.013 h	3.32 ± 0.21 h
MLRECDYSQALLEQVNQAISDKTPLVIQGSNSKAFLGRPVTGQTLDVRCHRGIVNYDPTELVITARVGTPLVTIEAALESAGQMLPCEPPHYGEEATWGGMVACGLAGPRRPWSGSVRDFVLGTRIITGAGKHLRFGGEVMKNVAGYDLSRLMVGSYGCLGVLTEISMKVLPRPRASLSLRREISLQEAMSEIAEWQLQPLPISGLCYFDNALWIRLEGGEGSVKAARELLGGEEVAGQFWQQLREQQLPFFSLPGTLWRISLPSDAPMMDLPGEQLIDWGGALRWLKSTAEDNQIHRIARNAGGHATRFSAGDGGFAPLSAPLFRYHQQLKQQLDPCGVFNPGRMYAEL	–	–	–	–	2.52 ± 0.13 h	3.59 ± 0.039 h	–	–	–	3.88 ± 1.7 h	4.1 ± 1.8 h	1.22 ± 0.36 h
MLRFSANLSMLFGEYDFLARFEKAAQCGFRGVEFMFPYDYDIEELKHVLASNKLEHTLHNLPAGDWAAGERGIACIPGREEEFRDGVAAAIRYARALGNKKINCLVGKTPAGFSSEQIHATLVENLRYAANMLMKEDILLLIEPINHFDIPGFHLTGTRQALKLIDDVGCCNLKIQYDIYHMQRMEGELTNTMTQWADKIGHLQIADNPHRGEPGTGEINYDYLFKVIENSDYNGWVGCEYKPQTTTEAGLRWMDPYR	5.97 h	–	4.98 h	3.59 ± 0.17 h	–	10.1 h	3.73 h	6.46 h	5.52 h	7.81 h	4.29 ± 0.63 h	–
